# Measured values published in IntAct's records for PubMed 21037004.
# B1: Protein-export protein SecB (Escherichia coli (strain K12)), P0AG86 (parent)
# chain: MSEQNNTEMTFQIQRIYTKDISFEAPNAPHVFQKDWQPEVKLDLDTASSQLADDVYEVVLRVTVTASLGEETAFLCEVQQGGIFSIAGIEGTQMAHCLGAYCPNILFPYARECITSMVSRGTFPQLNLAPVNFDALFMNYLQQQAGEGTEEHQDA
# Variants of: B1
# Details: with seca_ecoli secA
row,effect of a mutation on the interaction,Variant
1,increasing interaction strength,MSEQNNTEMTFQIQRIYTKDISFEAPNAPHVFQKDWQPEVKLDLDTASSQLADDVYEVVLRVTVTASLGEETAFLCEVQQGGIFSIAGIEGTQMAHCLGAYCPNILFPYARECITSMVSRGTFPQLNLAPVNFDALFMNYLQQQAGEGCEEHQDA [T149C]
2,increasing interaction strength,MSEQNNTEMTFQIQRIYTKDISFEAPNAPHVFQKDWQPEVKLDLDTASSQLADDVYEVVLRVTVTASLGEETAFLCEVQQGGIFSIAGIEGTQMAHCLGAYCPNILFPYARECITSMVSRGTFPQLNLAPVNFDALFMNYLQQQAGCGTEEHQDA [E147C]
3,increasing interaction strength,MSEQNNTEMTFQIQRIYTKDISFEAPNAPHVFQKDWQPEVKLDLDTASSQLADDVYEVVLRVTVTASLGEETAFLCEVQQGGIFSIAGIEGTQMAHCLGAYCPNILFPYARECITSMVSRGTFPQLNLAPVNFDALFMNYLQQQAEEGTEEHQDA [G146E]
4,increasing interaction strength,MSEQNNTEMTFQIQRIYTKDISFEAPNAPHVFQKDWQPEVKLDLDTASSQLADDVYEVVLRVTVTASLGEETAFLCEVQQGGIFSIAGIEGTQMAHCLGAYCPNILFPYARECITSMVSRGTFPQLNLAPVNFDALFMNYLQQQAGEGTEEHQDC [A155C]
5,increasing interaction strength,MSEQNNTEMTFQIQRIYTKDISFEAPNAPHVFQKDWQPEVKLDLDTASSQLADDVYEVVLRVTVTASLGEETAFLCEVQQGGIFSIAGIEGTQMAHCLGAYCPNILFPYARECITSMVSRGTFPQLNLAPVNFDALFMNYLQQQAGEGTCEHQDA [E150C]
